# Test results published in article PMC7804152, “Structural basis for the multi-activity factor Rad5 in replication stress tolerance”.
# T1: KlHIRAN (Kluyveromyces lactis, UniProt Q6CJM4 174-341)
# T1 sequence: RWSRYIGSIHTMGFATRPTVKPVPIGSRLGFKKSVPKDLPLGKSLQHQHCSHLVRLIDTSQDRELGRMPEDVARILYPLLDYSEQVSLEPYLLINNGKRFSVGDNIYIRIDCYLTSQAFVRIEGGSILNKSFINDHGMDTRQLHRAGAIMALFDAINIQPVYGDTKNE
# T2: KlRad5 (Kluyveromyces lactis, UniProt Q6CJM4 163-1114)
# T2 sequence: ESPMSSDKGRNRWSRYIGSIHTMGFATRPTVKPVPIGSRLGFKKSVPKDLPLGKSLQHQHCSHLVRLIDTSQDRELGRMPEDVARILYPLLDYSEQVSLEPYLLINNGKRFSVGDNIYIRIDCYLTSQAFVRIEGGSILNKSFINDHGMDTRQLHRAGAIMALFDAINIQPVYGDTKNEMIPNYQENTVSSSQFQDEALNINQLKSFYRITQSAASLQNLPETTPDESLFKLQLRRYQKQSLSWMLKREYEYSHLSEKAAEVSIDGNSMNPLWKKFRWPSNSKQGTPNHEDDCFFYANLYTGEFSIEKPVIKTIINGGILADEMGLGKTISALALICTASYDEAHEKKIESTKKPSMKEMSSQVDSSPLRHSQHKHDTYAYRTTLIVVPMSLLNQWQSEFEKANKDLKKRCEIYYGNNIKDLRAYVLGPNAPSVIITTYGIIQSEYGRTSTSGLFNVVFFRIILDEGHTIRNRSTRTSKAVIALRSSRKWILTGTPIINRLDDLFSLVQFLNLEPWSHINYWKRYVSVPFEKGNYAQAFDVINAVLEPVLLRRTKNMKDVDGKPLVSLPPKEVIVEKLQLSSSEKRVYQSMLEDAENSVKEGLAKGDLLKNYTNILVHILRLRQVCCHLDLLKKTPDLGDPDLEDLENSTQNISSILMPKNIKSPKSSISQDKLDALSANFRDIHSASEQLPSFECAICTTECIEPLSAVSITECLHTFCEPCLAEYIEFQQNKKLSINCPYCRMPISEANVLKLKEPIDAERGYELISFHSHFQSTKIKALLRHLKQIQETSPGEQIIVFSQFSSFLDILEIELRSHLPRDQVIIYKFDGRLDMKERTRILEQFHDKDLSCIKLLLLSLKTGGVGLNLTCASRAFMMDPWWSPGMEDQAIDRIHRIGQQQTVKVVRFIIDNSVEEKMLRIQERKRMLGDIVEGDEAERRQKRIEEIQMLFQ
# T3: His-KlRad5 (Kluyveromyces lactis, UniProt Q6CJM4 163-1114)
# T3 sequence: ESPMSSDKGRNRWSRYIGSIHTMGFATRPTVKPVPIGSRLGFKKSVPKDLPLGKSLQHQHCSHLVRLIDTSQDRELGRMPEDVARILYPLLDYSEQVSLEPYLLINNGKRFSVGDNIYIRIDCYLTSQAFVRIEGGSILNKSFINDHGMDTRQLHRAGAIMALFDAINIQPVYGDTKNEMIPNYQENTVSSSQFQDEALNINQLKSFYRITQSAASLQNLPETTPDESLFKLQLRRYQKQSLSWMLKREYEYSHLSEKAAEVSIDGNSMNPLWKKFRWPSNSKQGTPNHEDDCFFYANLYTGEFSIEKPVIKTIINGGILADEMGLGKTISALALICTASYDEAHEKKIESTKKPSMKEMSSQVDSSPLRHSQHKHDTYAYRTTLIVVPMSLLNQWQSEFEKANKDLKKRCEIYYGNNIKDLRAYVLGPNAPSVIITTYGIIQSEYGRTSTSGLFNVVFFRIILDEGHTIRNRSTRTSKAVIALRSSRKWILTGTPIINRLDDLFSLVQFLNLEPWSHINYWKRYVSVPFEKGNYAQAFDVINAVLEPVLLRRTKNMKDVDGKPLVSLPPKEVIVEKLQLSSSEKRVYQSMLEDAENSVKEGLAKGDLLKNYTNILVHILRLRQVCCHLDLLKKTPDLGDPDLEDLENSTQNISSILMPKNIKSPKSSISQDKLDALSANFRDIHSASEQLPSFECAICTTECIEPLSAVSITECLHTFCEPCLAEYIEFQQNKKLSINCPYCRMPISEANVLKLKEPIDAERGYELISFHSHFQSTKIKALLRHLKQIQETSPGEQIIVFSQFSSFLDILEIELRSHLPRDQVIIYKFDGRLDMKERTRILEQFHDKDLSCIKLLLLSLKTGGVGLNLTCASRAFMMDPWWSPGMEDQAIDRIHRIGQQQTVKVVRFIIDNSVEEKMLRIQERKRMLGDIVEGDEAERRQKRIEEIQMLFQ
# Experiments:
# KlHIRAN = target: T1, KlHIRAN; experiment: fluorescence polarization; 50 mM NaCl; stronger than blunt dsDNA; FP: 20 mM Tris pH 7.5, 50 mM (dsDNA, KlHIRAN) or 70 mM (ssDNA) NaCl, 2 mM MgCl2, 1 nM DNA, room temp; EMSA: 20 mM Tris pH 7.5, 100 mM KCl, 0.5 mM DTT, 3% glycerol, 2 mM MgCl2, 250 ug/mL BSA, 4 C; pull-down: 20 mM Tris pH 7.5, 50 mM NaCl, 4 C; details: protein: recombinant, tags: intein-CBD cleaved off
# KlRad5 [1] = target: T2, KlRad5; experiment: fluorescence polarization; 50 mM NaCl; high affinity, Kd only in figure; FP: 20 mM Tris pH 7.5, 50 mM (dsDNA, KlHIRAN) or 70 mM (ssDNA) NaCl, 2 mM MgCl2, 1 nM DNA, room temp; EMSA: 20 mM Tris pH 7.5, 100 mM KCl, 0.5 mM DTT, 3% glycerol, 2 mM MgCl2, 250 ug/mL BSA, 4 C; pull-down: 20 mM Tris pH 7.5, 50 mM NaCl, 4 C; details: protein: recombinant; tags: none; label: 5'-FAM; blunt
# His-KlRad5 = target: T3, His-KlRad5; experiment: fluorescence polarization; FP: 20 mM Tris pH 7.5, 50 mM (dsDNA, KlHIRAN) or 70 mM (ssDNA) NaCl, 2 mM MgCl2, 1 nM DNA, room temp; EMSA: 20 mM Tris pH 7.5, 100 mM KCl, 0.5 mM DTT, 3% glycerol, 2 mM MgCl2, 250 ug/mL BSA, 4 C; pull-down: 20 mM Tris pH 7.5, 50 mM NaCl, 4 C; details: protein: recombinant; tags: N-terminal His6; label: 5'-FAM; blunt
# KlRad5 [2] = target: T2, KlRad5; experiment: pull-down; 50 mM NaCl; FP: 20 mM Tris pH 7.5, 50 mM (dsDNA, KlHIRAN) or 70 mM (ssDNA) NaCl, 2 mM MgCl2, 1 nM DNA, room temp; EMSA: 20 mM Tris pH 7.5, 100 mM KCl, 0.5 mM DTT, 3% glycerol, 2 mM MgCl2, 250 ug/mL BSA, 4 C; pull-down: 20 mM Tris pH 7.5, 50 mM NaCl, 4 C; details: protein: recombinant; tags: none; label: 5'-biotin; blunt, self-annealing, 2 copies of D1
# KlRad5 [3] = target: T2, KlRad5; experiment: hydrogen-deuterium exchange MS; 200 mM NaCl; protection of 548-554, 684-700, 1039-1049, 1081-1092; FP: 20 mM Tris pH 7.5, 50 mM (dsDNA, KlHIRAN) or 70 mM (ssDNA) NaCl, 2 mM MgCl2, 1 nM DNA, room temp; EMSA: 20 mM Tris pH 7.5, 100 mM KCl, 0.5 mM DTT, 3% glycerol, 2 mM MgCl2, 250 ug/mL BSA, 4 C; pull-down: 20 mM Tris pH 7.5, 50 mM NaCl, 4 C; details: protein: recombinant; tags: none; blunt, self-annealing, 2 copies of D1
binder,measurement,setting,value
CAACGTCATAGACGATTACATTGCTACATGGAGCTGTCTAGAGGATCCGA (ssDNA) [D3a ssDNA],binding result,KlHIRAN; label: 5'-FAM,binds
D3a/D3c 5'-overhang dsDNA (dsDNA) DNA 1: CAACGTCATAGACGATTACATTGCTACATGGAGCTGTCTAGAGGATCCGA DNA 2: TCGGATCCTCTAGACAGCTCCATGT,binding result,"KlHIRAN; label: 5'-FAM on D3a, 5' overhang 25 nt (D3a)",binds
D3a/D3d 3'-overhang dsDNA (dsDNA) DNA 1: CAACGTCATAGACGATTACATTGCTACATGGAGCTGTCTAGAGGATCCGA DNA 2: AGCAATGTAATCGTCTATGACGTTG,binding result,"KlHIRAN; label: 3'-FAM on D3a, 3' overhang 25 nt (D3a)",binds
D2a/D2b dsDNA (dsDNA) DNA 1: ACCAGTGCCAGTGAT DNA 2: ATCACTGGCACTGGT,binding result,KlRad5 [1],binds
same,binding result,His-KlRad5,binds
"D1 dsDNA, 5'-biotin (dsDNA) DNA 1: TCGGATCCTCTAGACAGCTCCATGCATGGAGCTGTCTAGAGGATCCGA DNA 2: TCGGATCCTCTAGACAGCTCCATGCATGGAGCTGTCTAGAGGATCCGA",binding result,KlRad5 [2],binds
"D1 dsDNA, unlabelled (dsDNA) DNA 1: TCGGATCCTCTAGACAGCTCCATGCATGGAGCTGTCTAGAGGATCCGA DNA 2: TCGGATCCTCTAGACAGCTCCATGCATGGAGCTGTCTAGAGGATCCGA",binding result,KlRad5 [3],binds
